Values joined by “and” are separate entries in the source; they are usually repeats but may differ in a detail not shown here. Equal values may be shown once. One block for each molecule: values may come before it.
Columns and labels:
[1] = biological target: MalE-MglC (Myxococcus xanthus); test: mass photometry; single proteins in solution, diluted into phosphate-buffered saline; MalE-RomR and MalE-RomR^C at 25 nM and 50 nM
[2] = biological target: MalE-MglC (Myxococcus xanthus); test: mass photometry; mixtures of MalE-MglC with MalE-RomR or MalE-RomR^C in solution, diluted into phosphate-buffered saline
[3] = biological target: MalE-RomR^C (Myxococcus xanthus); test: mass photometry; single proteins in solution, diluted into phosphate-buffered saline; MalE-RomR and MalE-RomR^C at 25 nM and 50 nM
[4] = biological target: MalE-RomR (Myxococcus xanthus); test: as above
MglA-His6 = biological target: T1, MglA-His6 (Myxococcus xanthus, UniProt Q1DB04 1-195); test: pull-down; Strep-MglC as bait on Strep-Tactin beads; 40 µM GppNHp in all buffers; without or with MglA-His6 preincubated with GppNHp; proteins 10 µM; MglB detected by immunoblot with α-MglB; conditions: both partners purified
T1 construct: MglA, small GTPase of Myxococcus xanthus; Preloaded with GTP, GppNHp or GDP (40 µM) according to the experiment; the nucleotide is named in the assay's format; also called MglA-GTP; source: E. coli Rosetta 2(DE3), purified (Ni-NTA, Superdex 75 gel filtration); not shown: His6, C-terminal, kept
T1 sequence: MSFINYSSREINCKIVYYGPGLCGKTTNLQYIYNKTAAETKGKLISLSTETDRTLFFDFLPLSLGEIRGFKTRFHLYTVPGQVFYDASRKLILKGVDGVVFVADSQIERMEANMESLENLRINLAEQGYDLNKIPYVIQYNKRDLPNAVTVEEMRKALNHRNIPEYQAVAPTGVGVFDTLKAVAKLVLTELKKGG

Molecule: MalE-RomR^C (domain or fragment)
stoichiometry N (RomR^C per MglC (printed as 2:2)) [2]: 1
stoichiometry N (RomR^C per MglC (printed as 3:2)) [2]: 1.5
stoichiometry N [3]: 2 and 3

Molecule: MalE-RomR (natural protein)
stoichiometry N (RomR per MglC (printed as 2:2)) [2]: 1
stoichiometry N (RomR per MglC (printed as 3:2)) [2]: 1.5
stoichiometry N [4]: 2 and 3

Next, values leading:

stoichiometry N [1]: 2
Molecule: MalE-MglC (natural protein)

binding result (MglA-His6): binds
B1: His6-MglB (natural protein, Myxococcus xanthus)
chain: MGTQLVMYEEEFTKINAVCDRLTKDANAKVVFLVDKNGQLISSAGQTQNIDTTSLASLTAGNVAAMGGLAKLIGENEFPNQFHEGAKDSLYMTIVGSRVVLVVIFDNRTSLGLVRLRIKKASDELTKIFESLVKKTDSPGAGSPFAEISDDDIDNLFSE
notes: also called MglB-His6; MglB^WT; source: E. coli Rosetta 2(DE3), purified (Ni-NTA, Superdex 75 gel filtration); not shown: His6, N-terminal, kept

From paper PMC10329633, “Molecular basis and design principles of switchable front-rear polarity and directional migration in Myxococcus xanthus” (Nature Communications, 2023)
